The results in this text go back to US20190025332A1 (Novo Nordisk, published 2019).

Assay [1] addresses T1, wild type human MIC-1 (human, UniProt Q99988 197-308).
T1 construct: also called wtMIC-1; hMIC-1
T1 sequence: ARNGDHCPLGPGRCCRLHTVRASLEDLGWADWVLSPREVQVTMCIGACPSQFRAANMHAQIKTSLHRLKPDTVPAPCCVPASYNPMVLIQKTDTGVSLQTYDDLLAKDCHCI
In words: SPR; GFRAL fragment as analyte over immobilised wtMIC-1; relative to hGFRAL(ECR) set as 100%. Here is the method:
MIC-1 interactions with soluble GFRAL fragments were assessed by SPR-based binding assay. A Biacore® 4000 (GE Healthcare, Piscataway, N.J., USA) instrument was used for SPR-based binding assay. The assays were performed at 25° C. at flow rates of 30 μL/minute in 1× HBS-P running buffer (BR-1006-71, GE Healthcare, Piscataway, N.J., USA). Purified GFRAL fragments at various concentrations were run as flow-through analyte and wtMIC-1 was immobilized as ligand. Please see FIG. 6 and Table 5.
Background: SPR reads the build-up and loss of mass on a sensor chip optically.

In assay [2] the target is T2, hRET(ECR)-hIgG1.1_Fc (human).
T2 construct: also called hRET(ECR)-Fc; hRet(ECR)-Fc
The assay can be described thus: SPR; analyte 0 nM over immobilised hRet(ECR)-Fc. The protocol:
(§1) hRet and complex of hGFRAL and MIC-1 interactions were assessed by SPR-based binding assay. A Biacore® 4000 (GE Healthcare, Piscataway, N.J., USA) instrument was used. The assays were performed at 25° C. at flow rates of 30 μL/minute in 1× HBS-P running buffer (BR-1006-71, GE Healthcare, Piscataway, N.J., USA). hRet(ECR)-Fc was immobilized through Fc as ligand on the chip. VISTA-Fc was immobilized as negative control ligand. The complex of MIC-1 and hGFRAL was prepared by pre-incubating wtMIC-1 with hGFRAL(ECR)-His. wtMIC-1, hGFRAL(ECR)-His, complex of wtMIC-1 and Ctrl-His, and complex of wtMIC-1 and hGFRAL(ECR)-His at various concentration were run as flow-through analyte.
(§2) Thus, it can be concluded that that hRet binds to hGFRAL in the presence of MIC-1; and Ret, MIC-1 and GFRAL forms a ternary complex.

Assay [3] concerns the target T2, hRET(ECR)-hIgG1.1_Fc. The assay can be described thus: SPR; analyte 333 nM over immobilised hRet(ECR)-Fc. The protocol:
as §1, §2

Assay [4] addresses T3, VISTA-Fc.
T3 construct: Negative control ligand immobilised on the chip; also called Ctrl-Fc
The assay can be described thus: SPR; analyte 333 nM over immobilised VISTA-Fc (Ctrl-Fc). The protocol:
as §1, §2

The target in assay [5] is T3, VISTA-Fc. In words: SPR; analyte 111 nM over immobilised VISTA-Fc (Ctrl-Fc). Here is the method: as §1, §2
The target in assay [6] is T3, VISTA-Fc. The assay can be described thus: SPR; analyte 1000 nM over immobilised VISTA-Fc (Ctrl-Fc). Here is the method:
as §1, §2

In assay [7] the target is T2, hRET(ECR)-hIgG1.1_Fc. The assay can be described thus: SPR; analyte 12 nM over immobilised hRet(ECR)-Fc. Here is the method:
as §1, §2

In assay [8] the target is T3, VISTA-Fc. In words: SPR; analyte 0 nM over immobilised VISTA-Fc (Ctrl-Fc). Here is the method:
as §1, §2

In assay [9] the target is T3, VISTA-Fc. In words: SPR; analyte 12 nM over immobilised VISTA-Fc (Ctrl-Fc). Here is the method: as §1
Assay [10] concerns the target T2, hRET(ECR)-hIgG1.1_Fc. The assay can be described thus: SPR; analyte 37 nM over immobilised hRet(ECR)-Fc. The protocol:
as §1, §2

Assay [11] concerns the target T2, hRET(ECR)-hIgG1.1_Fc. The assay can be described thus: SPR; analyte 111 nM over immobilised hRet(ECR)-Fc. The protocol:
as §1, §2

Assay [12] deals with T2, hRET(ECR)-hIgG1.1_Fc. The assay can be described thus: SPR; analyte 1000 nM over immobilised hRet(ECR)-Fc. The protocol: as §1, §2
Assay [13] concerns the target T3, VISTA-Fc. The assay can be described thus: SPR; analyte 37 nM over immobilised VISTA-Fc (Ctrl-Fc). The protocol:
as §1, §2

T2 sequence (chain, as listed by the source limits assumed): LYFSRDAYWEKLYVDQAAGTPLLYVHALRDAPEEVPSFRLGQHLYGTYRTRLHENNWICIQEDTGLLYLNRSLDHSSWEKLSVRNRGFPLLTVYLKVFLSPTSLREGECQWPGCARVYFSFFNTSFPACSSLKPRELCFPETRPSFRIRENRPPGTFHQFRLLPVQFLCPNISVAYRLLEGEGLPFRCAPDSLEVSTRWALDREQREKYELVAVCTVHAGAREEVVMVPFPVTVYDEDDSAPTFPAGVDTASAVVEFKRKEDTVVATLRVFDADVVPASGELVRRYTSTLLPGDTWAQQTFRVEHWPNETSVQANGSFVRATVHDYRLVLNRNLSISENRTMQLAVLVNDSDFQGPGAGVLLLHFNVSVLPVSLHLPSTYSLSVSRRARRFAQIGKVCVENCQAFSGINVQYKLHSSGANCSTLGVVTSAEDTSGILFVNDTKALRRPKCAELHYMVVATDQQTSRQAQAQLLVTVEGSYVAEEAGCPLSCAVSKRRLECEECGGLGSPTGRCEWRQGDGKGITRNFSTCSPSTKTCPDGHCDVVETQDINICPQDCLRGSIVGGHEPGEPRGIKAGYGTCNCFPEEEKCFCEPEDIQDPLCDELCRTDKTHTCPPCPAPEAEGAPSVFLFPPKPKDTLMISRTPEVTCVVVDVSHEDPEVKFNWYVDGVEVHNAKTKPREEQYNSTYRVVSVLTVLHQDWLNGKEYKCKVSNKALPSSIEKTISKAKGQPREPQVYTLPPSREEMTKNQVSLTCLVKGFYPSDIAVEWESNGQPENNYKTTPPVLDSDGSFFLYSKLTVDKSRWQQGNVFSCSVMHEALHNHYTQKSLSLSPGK

B1: hGFRAL_C2_Fab_HPC4 (receptor)
chain: CLEVAEACVGDVVCNAQLASYLKACSANGNPCDLKQCQAAIRFFYQNIPFNIAQMLAFCDCAQSDIPCQQSKEALHSKTCAVNMVPPPTGGGGSGGGGSDVVMTQTPLSLPVSLGDQASISCRSSQSLLHSNGNTYLHWYLQKPGQSPKLLIYKVSNRFSGVPDRFSGSGSGTDFTLKISRVEAEDLGVYFCSQSTHVPWTFGGGTKLEIKRADAAPTVSIFPPSSEQLTSGGASVVCFLNNFYPKDINVKWKIDGSERQNGVLNSWTDQDSKDSTYSMSSTLTLTKDEYERHNSYTCEATHKTSTSPIVKSFNRNEC
heavy: EVQIQESGPSLVKPSQTLSLTCSVSGDSITSGYWNWIRKFPGHKIEYMGTISYSGDTYYNPSLKSRISITRDTSKNQYYLHLNSVTTEDTATYYCARYGSYVFDYWGQGTTLTVSSAKTTPPSVYPLAPGSAAQTNSMVTLGCLVKGYFPEPVTVTWNSGSLSSGVHTFPAVLQSDLYTLSSSVTVPSSTWPSETVTCNVAHPASSTKVDKKIVPRDCGGGGSEDQVDPRLIDGK
notes: C2 = amino acid 131-219 of UniProt Q6UXV0
For the molecule B1, the “% of Binding” value in assay [1] stood at 21%.

B2: hGFRAL_C1C2_Fab_HPC4 (receptor)
chain: QTNNCTYLREQCLRDANGCKHAWRVMEDACNDSDPGDPCKMRNSSYCNLSIQYLVESNFQFKECLCTDDFYCTVNKLLGKKCINKSDNVKEDKFKWNLTTRSHHGFKGMWSCLEVAEACVGDVVCNAQLASYLKACSANGNPCDLKQCQAAIRFFYQNIPFNIAQMLAFCDCAQSDIPCQQSKEALHSKTCAVNMVPPPTGGGGSGGGGSDVVMTQTPLSLPVSLGDQASISCRSSQSLLHSNGNTYLHWYLQKPGQSPKLLIYKVSNRFSGVPDRFSGSGSGTDFTLKISRVEAEDLGVYFCSQSTHVPWTFGGGTKLEIKRADAAPTVSIFPPSSEQLTSGGASVVCFLNNFYPKDINVKWKIDGSERQNGVLNSWTDQDSKDSTYSMSSTLTLTKDEYERHNSYTCEATHKTSTSPIVKSFNRNEC
heavy: B1 heavy
Consider B2, for which, in assay [1], the “% of Binding” value is 87%.

B3: hGFRAL_C2C3_Fab_HPC4 (receptor)
chain: CLEVAEACVGDVVCNAQLASYLKACSANGNPCDLKQCQAAIRFFYQNIPFNIAQMLAFCDCAQSDIPCQQSKEALHSKTCAVNMVPPPTCLSVIRSCQNDELCRRHYRTFQSKCWQRVTRKCHEDENCISTLSKQDLTCSGSDDCKAAYIDILGTVLQVQCTCRTITQSEESLCKIFQHMLHRKSCFNYPTLSNVKGMALYTRKHANKITLTGFHSPFNGEGGGGSGGGGSDVVMTQTPLSLPVSLGDQASISCRSSQSLLHSNGNTYLHWYLQKPGQSPKLLIYKVSNRFSGVPDRFSGSGSGTDFTLKISRVEAEDLGVYFCSQSTHVPWTFGGGTKLEIKRADAAPTVSIFPPSSEQLTSGGASVVCFLNNFYPKDINVKWKIDGSERQNGVLNSWTDQDSKDSTYSMSSTLTLTKDEYERHNSYTCEATHKTSTSPIVKSFNRNEC
heavy: B1 heavy
Take B3: the “% of Binding” value in assay [1] is 8%.

B4: hGFRAL(ECR)-His (receptor, not shown: small tags and cut ends)
chain: SQTNNCTYLREQCLRDANGCKHAWRVMEDACNDSDPGDPCKMRNSSYCNLSIQYLVESNFQFKECLCTDDFYCTVNKLLGKKCINKSDNVKEDKFKWNLTTRSHHGFKGMWSCLEVAEACVGDVVCNAQLASYLKACSANGNPCDLKQCQAAIRFFYQNIPFNIAQMLAFCDCAQSDIPCQQSKEALHSKTCAVNMVPPPTCLSVIRSCQNDELCRRHYRTFQSKCWQRVTRKCHEDENCISTLSKQDLTCSGSDDCKAAYIDILGTVLQVQCTCRTITQSEESLCKIFQHMLHRKSCFNYPTLSNVKGMALYTRKHANKITLTGFHSPFNGE
Consider B4, for which the “Response (RU)” value is 0 RU in assay [2]; -0.497 RU in assay [3]; -3.48 RU in assay [4]; -2.94 RU in [5]; -3.85 RU in assay [6]; -0.0397 RU in assay [7]. Besides, the “Response (RU)” value in assay [8] was 0 RU; in assay [9] it was -2.34 RU; in [10], -0.105 RU; in [11], 0.208 RU; in assay [12], -1.11 RU; in assay [13] it was -2.04 RU.

B5: complex of wtMIC-1 and hGFRAL(ECR)-His (other)
chain 1: T1 sequence
chain 2: B4 chain
notes: Prepared by pre-incubating wtMIC-1 with hGFRAL(ECR)-His; also called wtMIC-1 + hGFRAL(ECR)-His; complex of MIC-1 and hGFRAL; not shown: His tag, not described
For B5, the “Response (RU)” value was 0 RU in assay [2]; 8.32 RU in assay [3]; -1.43 RU in [4]; -1.02 RU in assay [5]; -1.4 RU in [6]; 0.226 RU in assay [7]. The “Response (RU)” value in assay [8] was 0 RU; in assay [9], -1.39 RU; in assay [10] it was 1.97 RU; in assay [11], 5.48 RU; in assay [12], 10.7 RU; in assay [13] it was -1.48 RU.
